Test results reported in patent US20250304658A1 (ICAHN SCHOOL OF MEDICINE AT MOUNT SINAI, published 2025).
Positions count from the first letter of the chain named. “And” between values parts separate entries of the source, which are not always exact repeats. Equal entries are not always repeated.

T1: BK virus VP1 protein, genotype I (BK virus, UniProt P03088 1-362)
T1 sequence: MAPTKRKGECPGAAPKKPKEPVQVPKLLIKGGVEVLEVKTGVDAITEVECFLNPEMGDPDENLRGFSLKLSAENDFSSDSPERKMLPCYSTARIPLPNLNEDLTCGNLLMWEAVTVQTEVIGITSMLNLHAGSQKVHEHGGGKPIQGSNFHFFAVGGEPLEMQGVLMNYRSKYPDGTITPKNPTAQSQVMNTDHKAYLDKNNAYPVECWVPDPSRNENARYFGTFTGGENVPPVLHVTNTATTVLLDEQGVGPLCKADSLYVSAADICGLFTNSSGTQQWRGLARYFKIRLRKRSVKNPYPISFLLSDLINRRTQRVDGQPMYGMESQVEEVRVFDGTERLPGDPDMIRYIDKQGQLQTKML

B1: 7E5 (antibody, V domains shown)
VH: EVQLLESGGGLIQPGGSLRLSCAASGFTFSGFAMSWVRQAPGKGLEWVSGISGSGDITYYGDSVKGRFTISRDNSKSTLYLQMNSLRDADTAVYYCGKDPYNWNHGVYGMDVWGQGTTVTVSS
VL: DIQMTQSPSSLSASVGDRVTITCRASQSISTYLNWYQQKPGKAPKFLIYGASSLQSGVPSRFSGSGSGTDFSLTISSLHPGDFATYYCQQSYNIPLTFGGGTKVEIK
B2: 4E6 (antibody, V domains shown)
VH: EVQLVESGGDLVQPGRSLRLSCAASGFTFDDYAMHWVRQGPGKGLEWVSGISWSGVTMGYADSVKGRFTISRDNAKNSLYLRMNSLRADDTAFYYCARGDGTNAFDIWGHGTMVTVSS
VL: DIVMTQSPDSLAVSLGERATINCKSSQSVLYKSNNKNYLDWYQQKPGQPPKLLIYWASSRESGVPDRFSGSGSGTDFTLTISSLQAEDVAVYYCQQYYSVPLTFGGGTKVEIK
B3: 9H9 (antibody, V domains shown)
VH: EVQLVESGGGLVQPGGSLRLSCAASGFTFSSYEMNWVRQAPGKGLEWVSYISSGGSSIKYADSVRGRFTFSRDNAENSVHLQMNSLRGEDTAVYYCARVGGSYYYSYAMDVWGQGTAVTVSS
VL: DIQLTQSPSFLSASVGDRVTITCWASQDISSYLAWYQQKPGKAPKLLIYAASTLQSGVPSRFSGSGSGTEFTLTISSLQPEDFATYYCQQPNNYPFSFGPGTKVDVK
B4: 14F5 (antibody, V domains shown)
VH: EVQLLESGGGLVQPGGSLRLSCAVSGFTFSSFAMSWVRQAPGKGLEWVSGISASGGTTNYADSVKGRFTISRDNSKNTLYLQMSSLRAEDTAEYYCAKDRFLEWVEGFDPWGQGILVTVSP
VL: DIQMTQSPSSLSASVGDRVTITCRASQSIGRFLIWYQQKPGKAPKLLLYATSSLQSGVPARFTGSGSGTDFTLTIGSLQPEDFATYYCQQSYITPLTFGGGTKVEIK
B5: 9G9 (antibody, V domains shown)
VH: EVQLLESGGGLVQPGGSLRLSCAASGFTFHNYAMSWVRQAPGKGLEWVSGISGSGGTAYYADSVKGRFTISRDNSKNTLYLQMNSLRADDTALYYCAKDRFLEWVEGFDSWGQGTLVTVSS
VL: B4 VL with R31S, L48I, T51A, A60S, T63S, T74I, G76S, I93N
B6: 6H12 (antibody, V domains shown)
VH: B3 VH with T69A, G88A
VL: B3 VL with S63T, N92H, Y94S
B7: 15C10 (antibody, V domains shown)
VH: B4 VH with V24A
VL: B4 VL
B8: 7A4 (antibody, V domains shown)
VH: QVQLVESGGDLVKPGGSLRLSCVASGFTFSDYYMNWIRLPPGKGLEWISYIDSSAGAIYYADSVKGRFTVSRDDAKNSLFLHMNSLRADDTAVYYCVRERRDGHKIFDYWGPGTLVTVSS
VL: DIVMTQSPDSLAVSLGERATINCKSSQNILYSSNNKNYLAWYQQKAGQPPKLLIFWSSIRESGVPDRFSGSGSGTDFTLTISSLQAEDVAVYYCQQYYSSPYNFGRGTTLEIK
B9: 7H8 (antibody, V domains shown)
VH: EVQLLESGGGLVQPGGSLRLSCAASGFAFHTYDMTWVRQAPGKGLEWVSGVVGSGINTYYADSVKGRFTISRDNSKSTLYLQMNSLRAEDTAVYYCAKDSSSWFSLHYWGQGTLVTVSS
VL: DIQMTQSPSTLSASVGDRVTITCRASQSISNWLAWYQQKPGKAPKLLIYKASSLESGVPSRFSGSGSGTDFTLTISSLQPDDFASYYCQQYRSYAYTFGQGTKLEIT
B10: 8D10 (antibody, V domains shown)
VH: B8 VH with Q3H, L79M, V97A
VL: B8 VL with I59T
B11: 9B4 (antibody, V domains shown)
VH: B8 VH with V97A, D102E, Y109F
VL: B8 VL with V13L, W41C, I59T
B12: 4F7 (antibody, V domains shown)
VH: B8 VH with S85N, V97A, Y109C
VL: B8 VL with I59T
B13: 2F7 (antibody, V domains shown)
VH: B8 VH with D10G, K43R, E46Q, F80Y, H82Q, V97A, Y109W, P112Q
VL: B8 VL with S32T, A40G, F55Y, I59T, E61N, Q95H, N103T, R106Q, T109N
B14: 8A11 (antibody, V domains shown)
VH: B8 VH with I58T, D89E, V97A, D102S, Y109C
VL: B8 VL with I59T
B15: 5A8 (antibody, V domains shown)
VH: B8 VH with K43R, N77K, H82Y, V97A
VL: B8 VL with I59T, Q95H
B16: 1E2 (antibody, V domains shown)
VH: B8 VH with I48V, K65R, V97A, Y109C
VL: B8 VL with I59T, S82N
B17: 1H10 (antibody, V domains shown)
VH: B8 VH with Q3H, L39M, S85N, V97A, Y109C
VL: B8 VL with I59T
B18: 11D12 (antibody, V domains shown)
VH: B3 VH with H80F
VL: B3 VL
B19: 2H1 (antibody, V domains shown)
VH: B8 VH with V97A, Y109C
VL: B8 VL with A46T, I59T

Each binder was assayed against T1, BK virus VP1 protein, genotype I (assay: cell-based or functional assay).

Binder | EC50, pseudovirus neutralization [nM]
B1 | 0.0249
B2 | > 6.67
B3 | 0.0087

These binders were tested against BK virus VP1 protein, genotype II (BK virus) (assay: cell-based or functional assay).

Binder | EC50, pseudovirus neutralization [nM]
B4 | 0.0131
B5 | 0.0032
B6 | 0.0109
B7 | 0.0131
B8 | 0.0132
B9 | 0.05
B10 | 0.0492
B11 | 0.0152
B12 | 0.0319
B13 | 0.0011
B14 | 0.0014
B1 | 1.16
B15 | 0.0009
B16 | 0.0332
B17 | 0.0028
B2 | 0.0021
B3 | 0.0083
B18 | 0.0095

Each binder was assayed against BK virus VP1 protein, genotype III (BK virus) (assay: cell-based or functional assay).

Binder | EC50, pseudovirus neutralization [nM]
B4 | 0.0215
B5 | 1.7
B6 | 0.127
B7 | 0.0211
B8 | 0.0081
B9 | 0.0334
B10 | 0.029
B11 | 0.0118
B12 | 0.0143
B13 | 0.0022
B14 | 0.0315
B1 | 0.415
B15 | 0.0039
B16 | 0.0081
B17 | 0.0397
B2 | 0.0296
B3 | 1.14
B18 | 6.38

What follows are binders tested against BK virus VP1 protein, genotype IV (BK virus) (assay: cell-based or functional assay).

Binder | EC50, pseudovirus neutralization
B4 | 0.0671 nM
B5 | 0.11 nM
B6 | 2.21 nM
B7 | 0.0423 nM
B8 | 0.0251 nM
B19 | 0.0728 nM and 0.0815 nM
B9 | 0.0943 nM
B10 | 0.0894 nM
B11 | 0.0118 nM
B12 | 0.0416 nM
B13 | 0.0724 nM
B14 | 0.0948 nM
B1 | 0.133 nM
B15 | 0.0774 nM
B16 | 0.143 nM
B17 | 0.107 nM
B2 | 0.0197 nM
B3 | > 6.67 nM
B18 | > 6.67 nM

Molecular target: BK virus VP1 protein, genotype II (BK virus)
Experiment: cell-based or functional assay
Remark: another data set of the same source

Binder | EC50, pseudovirus neutralization (mAb mixed with irrelevant isotype matched mAb M2) [nM] | EC50, pseudovirus neutralization [nM]
B5 | 0.0023 | 
B6 | 0.0024 | 
B7 |  | 0.00058

Molecular target: BK virus VP1 protein, genotype III (BK virus)
Experiment: cell-based or functional assay
Remark: another data set of the same source

Binder | EC50, pseudovirus neutralization (mAb mixed with irrelevant isotype matched mAb M2) [nM] | EC50, pseudovirus neutralization [nM]
B5 | 1.29 | 
B6 | 0.172 | 
B7 |  | 0.00186

Molecular target: BK virus VP1 protein, genotype IV (BK virus)
Experiment: cell-based or functional assay
Remark: another data set of the same source

Binder | EC50, pseudovirus neutralization (mAb mixed with irrelevant isotype matched mAb M2) [nM] | EC50, pseudovirus neutralization [nM]
B5 | 0.196 | 
B6 | 0.944 | 
B7 |  | 0.0023
